Here are results for 4 molecules from PMC4203122, “Insights into transcriptional regulation of β-D-N-acetylhexosaminidase, an N-glycan-processing enzyme involved in ripening-associated fruit softening”.

Data set [1] has as its target T1, RIN139N (GST-RIN, N-terminal) (Solanum lycopersicum, UniProt Q8S4L4 1-139). Nature of the data set: EMSA; 20 mM HEPES pH 7.5, 20% glycerol, 0.05 ug poly(dIdC), 2.5 mM EDTA, 2.5 mM DTT, 25 mM NaCl, plus 0.8 mM ZnCl2 (SlASR1) or 10 mM MgCl2 (RIN), 25 C, 30 min; 6% native PAGE 0.5x TBE. The conditions noted are these: protein: recombinant; tags: N-terminal GST; chain copies: 2; label: 5'-32P. Background: Mobility shift assays separate free from complexed probe on a gel.

The target of data set [2] is T1, RIN139N (GST-RIN, N-terminal). Nature of the data set: EMSA; intense signal; 20 mM HEPES pH 7.5, 20% glycerol, 0.05 ug poly(dIdC), 2.5 mM EDTA, 2.5 mM DTT, 25 mM NaCl, plus 0.8 mM ZnCl2 (SlASR1) or 10 mM MgCl2 (RIN), 25 C, 30 min; 6% native PAGE 0.5x TBE. As to conditions: protein: recombinant; tags: N-terminal GST; chain copies: 2; label: 5'-32P.

T1 sequence (Q8S4L4 entry or part of it): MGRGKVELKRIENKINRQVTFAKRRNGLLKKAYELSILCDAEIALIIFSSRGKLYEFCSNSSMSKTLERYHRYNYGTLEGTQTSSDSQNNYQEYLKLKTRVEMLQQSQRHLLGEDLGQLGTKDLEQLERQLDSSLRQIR

B1: mCArG (26 bp, box 6 mutated) (dsDNA)
DNA 1: TTCATATTTCAAAATTTAATATTTTA
DNA 2: TAAAATATTAAATTTTGAAATATGAA
Take B1: in data set [1], the binding result is “no binding”.

B2: CArG (26 bp, box 6) (dsDNA)
DNA 1: TTCATATTCCAAAATTTGATATTTTA
DNA 2: TAAAATATCAAATTTTGGAATATGAA
As to B2, the binding result in data set [2] is reported as “binds”.

B3: SlASR1 promoter CArG (26 bp) (dsDNA)
DNA 1: AAGCAAAACATAAAATTGACTTGAAT
DNA 2: ATTCAAGTCAATTTTATGTTTTGCTT
Turning to B3, the binding result in data set [1] is “binds”.

B4: CArG box 5 (26 bp) (dsDNA)
DNA 1: CACAAAAACATAATTATGCTTCTTAC
DNA 2: GTAAGAAGCATAATTATGTTTTTGTG
For B4, in data set [2], the binding result is recorded as “binds”.
